Where a SMILES comes first, the peptide text is derived from it. Bridges are numbered along the chain shown (N, C = ends). Where no end group is shown, it is not given here. The star is where a group is joined. DOTA = O=C(O)CN1CCN(CC(=O)O)CCN(CC(=O)*)CCN(CC(=O)O)CC1; 125I = iodine-125 label on tyrosine, [125I]*
Columns and labels:
[1] = PET/CT scan of HNSCC tumor patient with SFLAP3; type: in vivo, human; conditions: human, right cervical lesion, iv, 322 MBq, total radioactivity; read-out: SUVmax right cervical lesion
Description: (§1) The emission data were corrected for randoms, scatter and decay. […] The quantitative assessment of tracer accumulation was done using a region of interest technique and using standardized uptake values (SUV).

HNSCC tumor = assay: PET/CT scan of HNSCC tumor patient with SFLAP3; type: in vivo, human
Description: as §1

[2] = Small-animal PET imaging, HNO399 xenografts; design: species or system mice; conditions: Balb/c nude, mouse, in vivo, iv, total radioactivity; 60 min after injection; read-out: SUVmean in tumor
[3] = Small-animal PET imaging, HNO97 xenografts; conditions: Balb/c nude, mouse, in vivo, iv, total radioactivity
Experimental: All experiments were conducted in compliance with the German animal protection laws. Eight week old Balb c/c nude mice (Charles River Laboratories) were inoculated subcutaneously at the right shoulder with 5×10^6 HNO97 cells in BD MatriGel™ (BD Bioscience). Xenografts were grown to a tumor diameter of 10-15 mm. For small animal-PET imaging mice were anesthetized using isoflurane inhalation and injected via tail-vein with 50 MBq (2 nmol) of the ^68Ga-labeled DOTA-SFITGv6 peptide (see above) solution in 100 μL PBS. Images were recorded on an Inveon small-animal PET scanner (Siemens) using a 60 min emission scan in list mode and a 10 min transmission scan. Images were taken in 3-dimensional (3D) mode and reconstructed iteratively with a fully 3D algorithm from a 256×256 matrix for viewing transaxial, coronal, and sagittal slices of 0.9 mm thickness. Pixel size was 0.38×0.38×0.79 mm3 and transaxial resolution obtained was 0.9 mm. For blocking experiments 100 μL of a 1 mM aqueous solution of SFITGv6 was pre-administered intraperitoneally 30 min before injection of the radiolabeled peptide. Biodistribution studies were performed after administration of 100 μL of a 20 nM ^177Lu-DOTA-SFITGv6 solution (1 MBq) as an intravenous bolus injection into the tail vein of the mice. After different time points (30 min to 6 hours) three animals, respectively, were sacrificed. Peripheral blood, heart, lung, spleen, liver, kidneys, muscle, brain, intestine, and injection site (tail, after intravenous injection only) were collected and weighted. Tissue-associated radioactivity was measured in a gamma counter (Berthold LB951G) and expressed as percentage of the injected dose per gram tissue (% ID/g).
All animal experiments were conducted in compliance with the German animal protection laws. For in vivo small animal PET imaging and organ distribution studies eight-week old Balb/c nude mice (Charles River Laboratories) were inoculated subcutaneously at the right shoulder with a total of 5×10^6 tumor cells in MatriGel (BD Bioscience). Xenografts were grown until a tumor diameter of 10-15 mm was reached.
3-dimensional (3D) PET images of whole mice were captured by the Siemens Inveon PET scanner as described in Example 1. To assess the biodistribution 100 μL of a 20 nM solution (1 MBq) of ^177Lu-DOTA-SFLAP3 and ^177Lu-DOTA-SFITGv6 were administered as an intravenous bolus injection into the tail vein of mice. For each time point (30 min to 6 hours) we sacrificed a total of three animals, and subsequently collected peripheral blood, heart, lung, spleen, liver, kidneys, muscle, brain, and intestine. Tissues were weighed and respective radioactivity was measured by a gamma counter (LB951G, Berthold Technologies). Values were expressed as percentage of the injected dose radioactivity (MBq) per gram tissue (% ID/g).

[4] = Small-animal PET imaging, HNO223 xenografts; design: species or system mice; conditions: Balb/c nude, mouse, in vivo, iv, total radioactivity; 60 min after injection; read-out: SUVmean in tumor
Capan-2 xenografts = assay: Small-animal PET imaging, Capan-2 xenografts; type: in vivo, mice; conditions: 25 MBq
Experimental: 6 to 8 week old Balb c/c nude mice (Charles River Lab.) were inoculated with 5*10^6 Capan-2 cells in 100 μl Opti-MEM medium. After 4 to 6 weeks the tumor has grown 10-15 mm in diameter. For small animal PET imaging 25 MBq of the ^68Ga-labeled peptide (2 nmol) was injected into the tail vein.

[5] = system: metastasized pancreatic cancer; assay: PET/CT and scintigraphy of pancreatic cancer patient; type: in vivo, human; conditions: 1 and 3 hours after injection
Experimental: PET/CT scans of tumor patients and body scintigraphy were performed as described in Example 1.

carcinoma cell lines = assay: In vitro binding of radiolabeled peptides to several carcinoma cell lines; type: cell-based, human; conditions: 10^−6 M competitor; all tested HNSCC cell lines
Experimental: For binding studies, 2.5×10^5 to 4×10^5 cells were seeded in 6-well plates and cultivated for 48 hours. Cells were incubated for 60 min with 1 mL serum-free medium containing the ^125I-labeled peptide (see above). For competition experiments, cells were simultaneously exposed to unlabeled (10^-4 M to 10^-10 M) and ^125I-labeled peptides. After three washing steps with PBS (pH 7.4) the cells were lysed with 0.5 mL of 0.3 M NaOH. Experiments concerning the internalization, kinetics and efflux were additionally performed with ^177Lu-DOTA-SFITGv6. To evaluate kinetics and efflux HNO97 cells were incubated for different time intervals (10 min to 480 min) and 60 min, respectively, with ^177Lu-DOTA-SFITGv6 and lysed as described. To continue with the efflux experiment radioactive medium was replaced by non-radioactive medium and cells were incubated again for 60 to 240 min before measuring radioactivity of the cell lysates and the medium. For internalization experiments the cells were exposed to ^177Lu-DOTA-SFITGv6 for different time intervals (10 to 240 min) at 37° C. and 4° C. After three washing steps with PBS the cells were incubated with 1 mL of glycine-HCl 50 mmol/L in PBS (pH 2.8) for 10 min at RT to remove the surface bound activity. Then, cells were washed with 3 mL of ice-cold PBS and lysed as described. Radioactivity was determined in a gamma counter and calculated as percentage of the applied dose per 1×10^6 cells. Experiments were performed three times, and three repetitions per independent experiment were acquired.
(§2) For the assessment of the peptide binding capacity in vitro, 2.5-4×10^5 cells were seeded into 6-well plates and cultivated for 48 h. ^125I-labeled peptide resuspended in 1 mL serum-free medium was added and incubated for either 10 min or 60 min with or without different concentrations of unlabeled peptide (10^−4-10^−11 M). Afterwards, cell monolayers were washed three times with 1 mL phosphate-buffered saline (pH 7.4) to remove unbound peptide and the cells were harvested with 1.4 mL lysis buffer (0.3 M NaOH). To evaluate kinetic properties the cells were exposed to ^177Lu-DOTA-labeled peptides for 10, 30, 60, 120, and 240 min, respectively, and lysed as described. For the efflux experiments the cells were incubated with ^177Lu-DOTA-labeled peptides for 60 min. Thereafter, radioactive medium was replaced by non-radioactive medium and cell monolayers were incubated for additional 60, 120, and 240 min and afterwards lysed as described earlier. The internalization was assessed after exposure of the cells to ^177Lu-DOTA-labeled peptides for 10, 30, 60, 120, and 240 min at 37° C. Unspecifically bound peptide was removed from the surface by incubation with 1 M glycine-HCl solution (pH 2.2) for 10 min. The monolayer cell was rinsed with PBS and cells were lysed as described before. Radioactivity was determined in a y-counter and calculated as percentage of the applied dose per 1×10^6 cells. Experiments were performed three times, and three repetitions per independent experiment were acquired.

HNO399 cells = assay: In vitro binding on HNO399 cells; type: cell-based, human; conditions: 60 min; percent applied dose/10^6 cells
Experimental: as §2, with “To evaluate kinetic properties the cells were exposed to ^177Lu-DOTA-labeled peptides for 10, 30, 60, 120, and 240 min, respectively, and lysed as described.” left out, “The internalization was assessed after exposure of the cells to ^177Lu-DOTA-labeled peptides for 10, 30, 60, 120, and 240 min at 37° C.” left out

OV433 and OV429 = assay: In vitro binding on ovarian cancer cell lines; type: cell-based, human; conditions: highest binding among tested ovarian cell lines
Experimental: (§3) For in vitro binding Studies, 4*10^5-6*10^5 cells were seeded in 6 well plates and cultivated for 24 to 48 hours. At the start of the experiment the medium was replaced with 1 ml serum free medium with a definite amount of radioactive labeled peptide per well. For normal binding assays the cells were incubated for 60 min at 37° C. and afterwards washed 3 times with PBS (pH 7.4). Cells were lysed with 2 times 0.5 ml of a 0.3 M NaOH +0.2% SDS lysis-buffer. Competition assays were performed with ^125I-labeled and unlabelled (10^−6 to 10^−11M) peptide and incubated at the same time for 60 min.

Capan-2 cells = assay: In vitro binding, internalization and efflux on Capan-2 cells; type: cell-based, human; conditions: 60 min
Experimental: as §3
Cells were incubated for 10 to 240 min with ^177Lu-labelled peptide in internalization assays. After the washing steps, the cells were incubated with 1 ml glycine-HCl (1 M, pH 2.2) buffer for 10 min to remove surface bound peptide. Prior to the lyses the cells were washed again. Values are given as percentage of applied dose per 10^6 cells.
The efflux was tested with ^177Lu-labeled peptides. After 60 min incubation the radioactive medium was removed and 1 ml fresh serum-free medium was added. After additional incubation of 60, 120 or 240 min, cell bound activity was measured.

With `CC(C)C[C@@H]1NC(=O)[C@H](CC(=O)O)NC(=O)CNC(=O)[C@H](CCCNC(=N)N)NC(=O)CNC(=O)[C@H]([C@@H](C)O)NC(=O)[C@@H](NC(=O)[C@H](CCCNC(=N)N)NC(=O)CNC(=O)CN2CCN(CC(=O)O)CCN(CC(=O)O)CCN(CC(=O)O)CC2)CSSC[C@@H](C(=O)N[C@@H](Cc2ccc(O)cc2)C(=O)N2CCC[C@H]2C(=O)N[C@@H](CC(=O)O)C(N)=O)NC(=O)[C@H](CC(C)C)NC(=O)[C@H](CCCNC(=N)N)NC(=O)CNC1=O` [^68Ga-DOTA-SFLAP3, metal not drawn] ({DOTA}-GRCTGRGDLGRLCYPD-NH2; disulfide 3-13; N-terminus and C-terminus assumed) the SUV [1] was 4.1 SUV, the “SUVmax Bight kidney” value (HNSCC tumor; 60 min) was 22.43 and the “SUVmax Blood pool (mediast.)” value (HNSCC tumor; 60 min) was 0.99. The “SUVmax Cerebral parietal” value (HNSCC tumor; 60 min) was 0.05, the “SUVmax Colon ascendens” value (HNSCC tumor; 60 min) was 9.2 and the “SUVmax Colon descendens” value (HNSCC tumor; 60 min) was 3.75. For the same compound, the “SUVmax Duodenum” value (HNSCC tumor; 60 min) was 6.31, the “SUVmax Hilar lymph nodes” value (HNSCC tumor; 60 min) was 4.07 and the “SUVmax Ileum” value (HNSCC tumor; 60 min) was 4.07. For the same compound, the “SUVmax Jejunum” value (HNSCC tumor; 60 min) was 10.46, the “SUVmax Kidney (left)” value (HNSCC tumor; 60 min) was 60.52 and the “SUVmax Liver (left)” value (HNSCC tumor; 60 min) was 0.67. For the same compound, the “SUVmax Liver (right)” value (HNSCC tumor; 60 min) was 0.73, the “SUVmax Lung (left)” value (HNSCC tumor; 60 min) was 0.36 and the “SUVmax Lung (right)” value (HNSCC tumor; 60 min) was 0.33. For the same compound, the “SUVmax Muscle (glut.)” value (HNSCC tumor; 60 min) was 1.94, the “SUVmax Os ileum” value (HNSCC tumor; 60 min) was 0.53 and the “SUVmax Pancreas head” value (HNSCC tumor; 60 min) was 2.3. The “SUVmax Plexus choroideus” value (HNSCC tumor; 60 min) was 1.06, the “SUVmax Spleen” value (HNSCC tumor; 60 min) was 0.54 and the “SUVmax Stomach” value (HNSCC tumor; 60 min) was 12.65. For the same compound, the “SUVmax Thyroid” value (HNSCC tumor; 60 min) was 3.27, the “SUVmax Tumor” value (HNSCC tumor; 60 min, listed as 68Ga-DOTA labeled SFLAP3) was 5.07 and the “SUVmax Tumor” value (HNSCC tumor; 60 min, listed as 68Ga-DOTA-labled SFLAP3) was 5.1. For the same compound, the “SUVmax Bight kidney” value (HNSCC tumor; 180 min) was 26.41, the “SUVmax Blood pool (mediast.)” value (HNSCC tumor; 180 min) was 1.05 and the “SUVmax Cerebral parietal” value (HNSCC tumor; 180 min) was 0.27. For the same compound, the “SUVmax Colon ascendens” value (HNSCC tumor; 180 min) was 19.37, the “SUVmax Colon descendens” value (HNSCC tumor; 180 min) was 2.97 and the “SUVmax Duodenum” value (HNSCC tumor; 180 min) was 8.91. For the same compound, the “SUVmax Hilar lymph nodes” value (HNSCC tumor; 180 min) was 4.15, the “SUVmax Ileum” value (HNSCC tumor; 180 min) was 17.65 and the “SUVmax Jejunum” value (HNSCC tumor; 180 min) was 9.2. The “SUVmax Kidney (left)” value (HNSCC tumor; 180 min) was 36.85, the “SUVmax Liver (left)” value (HNSCC tumor; 180 min) was 0.76 and the “SUVmax Liver (right)” value (HNSCC tumor; 180 min) was 0.75. The “SUVmax Lung (left)” value (HNSCC tumor; 180 min) was 0.46, the “SUVmax Lung (right)” value (HNSCC tumor; 180 min) was 0.33 and the “SUVmax Muscle (glut.)” value (HNSCC tumor; 180 min) was 1.92. For the same compound, the “SUVmax Os ileum” value (HNSCC tumor; 180 min) was 0.47, the “SUVmax Pancreas head” value (HNSCC tumor; 180 min) was 2.62 and the “SUVmax Plexus choroideus” value (HNSCC tumor; 180 min) was 1.57. The “SUVmax Spleen” value (HNSCC tumor; 180 min) was 0.8, the “SUVmax Thyroid” value (HNSCC tumor; 180 min) was 3.24 and the “SUVmax Tumor” value (HNSCC tumor; 180 min) was 4.64. The SUV at 1 h [2] was 0.44 SUV, the SUV at 1 h [3] was 0.63 SUV and the SUV at 1 h [4] was 0.32 SUV. The “time p.i. at which tracer accumulation was seen in the tumor” value (Capan-2 xenografts) was 20 min and the “PET/CT accumulation in tumor lesions” value [5] was “high accumulation over 3 hours into the tumor lesions”.
In the case of “^125I-SFLAP3: ^125I-labeled SFLAP3 (GRCTGRGDLGRLCY(125I)PD; disulfide 3-13)”, the “competition of binding by non-radioactively labeled counterpart” value (carcinoma cell lines) was “almost completely competed”, the “binding of ^125I-labeled peptide” value (HNO399 cells) was 10.1% and the “binding of ^125I-SFLAP3” value (OV433 and OV429) was 5%. The “^125I-SFLAP3 binding value” (Capan-2 cells) was 14%.

Source: patent US20200131227A1, “POLYPEPTIDE WITH TUMOUR BINDING ACTIVITY” (RUPRECHT-KARLS-UNIVERSITÄT HEIDELBERG, priority 2017, published 2020)
